Measured values from the supplement of paper PMC9112550, “Optimization of the antimicrobial peptide Bac7 by deep mutational scanning” (BMC Biology, 2022).

Tested on: Escherichia coli TOP10
Assay: shrunken log2 fold change of peptide-encoding DNA abundance (4.5 h post-induction vs induction); higher = less antimicrobial activity (less host growth inhibition)
Settings: time post-induction: 4.5 h; library: site-saturation at positions 5, 18, 19, 20
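Further: peptides expressed intracellularly from a pBAD plasmid library in pooled LB shake-flask culture, induced with 0.3% L-arabinose, DNA abundance read by NGS, three biological replicates, DESeq2 with apeglm shrinkage.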

| Sequence | shrunken log2 fold change |
| --- | --- |
| RRIRHRPPRLPRPRPRPSAEPRP | 0.217 |
| RRIRCRPPRLPRPRPRPSDVPRP | 0.00436 |
| RRIRCRPPRLPRPRPRPFVIPRP | -0.526 |
| RRIRFRPPRLPRPRPRPVGLPRP | 0.0115 |
| RRIRPRPPRLPRPRPRPWEYPRP | -0.05 |
| RRIRARPPRLPRPRPRPWFHPRP | -0.301 |
| RRIRARPPRLPRPRPRPAHPPRP | 0.653 |
| RRIRDRPPRLPRPRPRPRNAPRP | -0.145 |
| RRIRPRPPRLPRPRPRPADLPRP | 0.0166 |
| RRIRTRPPRLPRPRPRPWVFPRP | 0.0157 |
| RRIRERPPRLPRPRPRPPMCPRP | -0.305 |
| RRIRRRPPRLPRPRPRPFFDPRP | 0.296 |
| RRIRFRPPRLPRPRPRPMEKPRP | 0.273 |
| RRIRDRPPRLPRPRPRPIKTPRP | 0.058 |
| RRIRDRPPRLPRPRPRPKPPPRP | 0.471 |
| RRIRLRPPRLPRPRPRPPPEPRP | 1.35 |
| RRIRDRPPRLPRPRPRPHQRPRP | 0.0159 |
| RRIRRRPPRLPRPRPRPRHVPRP | 0.158 |
| RRIRQRPPRLPRPRPRPDQNPRP | -0.377 |
| RRIRLRPPRLPRPRPRPSNFPRP | -0.956 |
| RRIRYRPPRLPRPRPRPFCIPRP | -1.5 |
| RRIRKRPPRLPRPRPRPCPKPRP | 0.29 |
| RRIRIRPPRLPRPRPRPRCCPRP | -0.181 |
| RRIRLRPPRLPRPRPRPVMGPRP | 0.256 |
| RRIRNRPPRLPRPRPRPGKTPRP | 0.0837 |

| Sequence | shrunken log2 fold change |
| --- | --- |
| RRIRTRPPRLPRPRPRPMANPRP | -0.102 |
| RRIRLRPPRLPRPRPRPSMPPRP | -0.4 |
| RRIRFRPPRLPRPRPRPSDRPRP | -0.853 |
| RRIRPRPPRLPRPRPRPQQSPRP | -0.236 |
| RRIRNRPPRLPRPRPRPLNRPRP | -0.327 |
| RRIRCRPPRLPRPRPRPTCYPRP | -0.154 |
| RRIRFRPPRLPRPRPRPMWSPRP | -0.227 |
| RRIRDRPPRLPRPRPRPVRSPRP | 0.155 |
| RRIRERPPRLPRPRPRPSKGPRP | -0.35 |
| RRIRARPPRLPRPRPRPWKFPRP | -0.00178 |
| RRIRPRPPRLPRPRPRPMEAPRP | 0.177 |
| RRIRERPPRLPRPRPRPQCPPRP | -0.207 |
| RRIRWRPPRLPRPRPRPFQEPRP | -0.0827 |
| RRIRPRPPRLPRPRPRPCDYPRP | 0.218 |
| RRIRERPPRLPRPRPRPHPEPRP | -0.073 |
| RRIRPRPPRLPRPRPRPRPYPRP | 0.173 |
| RRIRFRPPRLPRPRPRPGREPRP | 0.0157 |
| RRIRYRPPRLPRPRPRPMYLPRP | -0.0959 |
| RRIRQRPPRLPRPRPRPDESPRP | 0.0454 |
| RRIRQRPPRLPRPRPRPALLPRP | -0.0269 |
| RRIRSRPPRLPRPRPRPHRSPRP | -0.188 |
| RRIRNRPPRLPRPRPRPIDWPRP | 0.0533 |
| RRIRPRPPRLPRPRPRPYLQPRP | -0.831 |
| RRIRDRPPRLPRPRPRPCTCPRP | -0.198 |
| RRIRWRPPRLPRPRPRPIVNPRP | -0.0307 |

| Sequence | shrunken log2 fold change |
| --- | --- |
| RRIRVRPPRLPRPRPRPTWVPRP | 0.228 |
| RRIRFRPPRLPRPRPRPLCCPRP | -0.205 |
| RRIRHRPPRLPRPRPRPVVTPRP | -0.0256 |
| RRIRLRPPRLPRPRPRPGTMPRP | -0.0422 |
| RRIRQRPPRLPRPRPRPLHAPRP | 0.164 |
| RRIRRRPPRLPRPRPRPLKTPRP | 0.157 |
| RRIRIRPPRLPRPRPRPHRFPRP | -0.62 |
| RRIRQRPPRLPRPRPRPAFFPRP | 0.11 |
| RRIRWRPPRLPRPRPRPTTEPRP | 0.207 |
| RRIRERPPRLPRPRPRPAKEPRP | 0.0889 |
| RRIRRRPPRLPRPRPRPLWRPRP | 0.348 |
| RRIRVRPPRLPRPRPRPMCGPRP | 0.0281 |
| RRIRARPPRLPRPRPRPEYAPRP | 0.672 |
| RRIRTRPPRLPRPRPRPQMRPRP | 0.472 |
| RRIRPRPPRLPRPRPRPNIIPRP | -0.407 |
| RRIRCRPPRLPRPRPRPEMHPRP | 0.304 |
| RRIRTRPPRLPRPRPRPPMSPRP | -0.0702 |
| RRIRKRPPRLPRPRPRPGNWPRP | 0.701 |
| RRIRDRPPRLPRPRPRPWHKPRP | -0.11 |
| RRIRGRPPRLPRPRPRPNNEPRP | 0.306 |
| RRIRKRPPRLPRPRPRPPVAPRP | 0.974 |
| RRIRNRPPRLPRPRPRPWRIPRP | 0.0411 |
| RRIRYRPPRLPRPRPRPYWSPRP | -0.0274 |
| RRIRWRPPRLPRPRPRPKAWPRP | 0.743 |
| RRIRKRPPRLPRPRPRPVLMPRP | 0.471 |

| Sequence | shrunken log2 fold change |
| --- | --- |
| RRIRIRPPRLPRPRPRPMGQPRP | -0.077 |
| RRIRFRPPRLPRPRPRPEEFPRP | -0.0316 |
| RRIRLRPPRLPRPRPRPMQTPRP | 0.0393 |
| RRIRYRPPRLPRPRPRPRPIPRP | -0.0521 |
| RRIRMRPPRLPRPRPRPQPPPRP | 1.18 |
| RRIRTRPPRLPRPRPRPWRAPRP | 0.21 |
| RRIRFRPPRLPRPRPRPEWNPRP | -0.21 |
| RRIRTRPPRLPRPRPRPMEPPRP | 0.045 |
| RRIRFRPPRLPRPRPRPDVLPRP | -0.0865 |
| RRIRDRPPRLPRPRPRPGKCPRP | -0.105 |
| RRIRQRPPRLPRPRPRPCAAPRP | 0.339 |
| RRIRRRPPRLPRPRPRPCGLPRP | 0.15 |
| RRIRMRPPRLPRPRPRPHRIPRP | 0.0956 |
| RRIRQRPPRLPRPRPRPSIVPRP | -0.323 |
| RRIRWRPPRLPRPRPRPRQIPRP | 0.459 |
| RRIRKRPPRLPRPRPRPHWKPRP | -0.00804 |
| RRIRTRPPRLPRPRPRPHLFPRP | -0.111 |
| RRIRLRPPRLPRPRPRPERDPRP | -0.189 |
| RRIRFRPPRLPRPRPRPVCAPRP | 0.198 |
| RRIRARPPRLPRPRPRPHMRPRP | 0.669 |
| RRIRVRPPRLPRPRPRPKQLPRP | 0.0267 |
| RRIRARPPRLPRPRPRPVYTPRP | -0.159 |
| RRIRQRPPRLPRPRPRPIILPRP | -0.516 |
| RRIRWRPPRLPRPRPRPMAIPRP | -0.198 |
| RRIRYRPPRLPRPRPRPAVRPRP | -0.0403 |

| Sequence | shrunken log2 fold change |
| --- | --- |
| RRIRGRPPRLPRPRPRPNQCPRP | 0.0163 |
| RRIRLRPPRLPRPRPRPPEAPRP | 0.255 |
| RRIRPRPPRLPRPRPRPGDVPRP | 0.145 |
| RRIRDRPPRLPRPRPRPKSIPRP | 0.114 |
| RRIRKRPPRLPRPRPRPDAAPRP | 0.976 |
| RRIRQRPPRLPRPRPRPMWEPRP | 0.00271 |
| RRIRVRPPRLPRPRPRPCSMPRP | -0.177 |
| RRIRHRPPRLPRPRPRPCRCPRP | -0.271 |
| RRIRSRPPRLPRPRPRPWPRPRP | 0.646 |
| RRIRKRPPRLPRPRPRPWAHPRP | 4.43 |
| RRIRQRPPRLPRPRPRPTDQPRP | 0.411 |
| RRIRARPPRLPRPRPRPDRGPRP | -0.283 |
| RRIRKRPPRLPRPRPRPVEGPRP | -0.006 |
| RRIRRRPPRLPRPRPRPNSSPRP | 0.105 |
| RRIRWRPPRLPRPRPRPTISPRP | 0.21 |
| RRIRLRPPRLPRPRPRPCVGPRP | -0.0253 |
| RRIRERPPRLPRPRPRPEFHPRP | -0.207 |
| RRIRRRPPRLPRPRPRPCWGPRP | 0.0286 |
| RRIRQRPPRLPRPRPRPLEQPRP | 0.0165 |
| RRIRRRPPRLPRPRPRPRMTPRP | 0.295 |
| RRIRVRPPRLPRPRPRPLTDPRP | 0.0682 |
| RRIRYRPPRLPRPRPRPVHSPRP | -0.155 |
| RRIRTRPPRLPRPRPRPYLWPRP | -0.284 |
| RRIRQRPPRLPRPRPRPGNDPRP | -0.299 |
| RRIRRRPPRLPRPRPRPAWPPRP | 0.446 |
